# How the values were obtained:
# [1] = system: human malignant melanoma A875, human lung cancer cells QG-56; experiment: Luciferase assay of c-erbB-2 promoter activity, non-breast tumor cells; format: cell-based; conditions: human malignant melanoma cells and human lung cancer cells; FIG. 7C
# Protocol: (§1) With the transcription initiation site of the c-erbB-2 gene as +1, DNA that corresponded to a genomic region (p533) from −435 to +38 and that had the sequence set forth in SEQ ID NO: 7 was amplified by the PCR method, and then the DNA fragment was integrated into the pGEM-TEasy (manufactured by Promega), and the sequences of the PCR product was determined. Thus, after inserting this PCR product into the SmaI site of pGL2-Basic (manufactured by Promega), it was cleaved with BlnI/SmaI, PstI/SmaI, and BssHII/SmaI using the restriction enzyme sites present on the c-erbB-2 genomic gene to construct plasmids in which the genomic regions of c-erbB-2, p344 (−306/+38) (DNA having the base sequence set forth in SEQ ID NO: 8), p251 (−213/+38) (DNA having the base sequence set forth in SEQ ID NO: 9) and p124 (−86/+38) (DNA having the base sequence set forth in SEQ ID NO: 10) are localized upstream of the Firefly luciferase gene, respectively. Using the plasmid pGL2-Control (manufactured by Promega) having the promoter of SV40 virus and the plasmid pGL2-Basic (manufactured by Promega) containing no promoters, gene introduction was performed in human breast cancer cells OCUBM, MCF7, BT549, normal human fibroblasts HEF, MRC-5, human malignant melanoma A875, and human lung cancer cells QG-56, all of which were cultured in DMEM (Sigma) supplemented with 10% bovine fetal serum. Firstly, after 10 μg each of these plasmids and lipofectin (Life Technologies) were mixed, it was allowed to stand at room temperature for 30 minutes to form a complex of DNA and lipid. Then the complex, after removing the bovine fetal serum therefrom, was contacted with the cells. Eight hours later culture medium supplemented with bovine fetal serum was added. After 48 hours-culture, the cells were disrupted using the Dual-Luciferase Reporter Assay System (manufactured by Promega), and the Firefly luciferase activity therein was determined using the reagents in the same kit. In order to normalize the efficiency of gene introduction, 1 μg of pRL-TK plasmid (manufactured by Promega) was included in each gene-introduced group, and the Renilla luciferase activity by the TK promoter was determined, based on which the Firefly luciferase activity was corrected.
# [2] = system: normal human fibroblasts HEF, MRC-5; experiment: Luciferase assay of c-erbB-2 promoter activity, normal fibroblasts; format: cell-based; conditions: FIG. 7B
# Protocol: as §1
# [3] = system: human breast cancer cells OCUBM, MCF7, BT549; experiment: Luciferase assay of c-erbB-2 promoter activity, breast cancer cells; format: cell-based; conditions: FIG. 7A
# Protocol: as §1, with “Then the complex, after removing the bovine fetal serum therefrom, was contacted with the cells. Eight hours later culture medium supplemented with bovine fetal serum was added.” left out
# breast cancer cells MCF7 = experiment: In vitro sensitivity to GCV of promoter-TK gene-introduced cells; format: cell-based, human; conditions: GCV seven days, FIG. 8A
# Protocol: (§2) In order to examine the cytotoxic effects using the p251 promoter, a suicide gene HSV-TK was ligated downstream of this promoter region (pro251-TK), this plasmid was expressed in cells, and a prodrug GCV was added to the culture of the gene-introduced cells. The measurement of cytotoxic effects by this system was carried out according to the method described in Moolten, Fla. Cancer Gene Ther., 1:279–287, 1994. Firstly, the cytomegalovirus (CMV) promoter of pcDNA3 (manufactured by Invitrogen) was removed using NruI and HindIII sites, into which the p251 promoter was inserted and then using the EcoRV site, the HSV-TK gene excised from pMK (Brinster, R L et al., Cell, 27:223–231, 1981) with BglI and EcoRI was inserted (pro251-TK). As a control, a pcDN3-derived plasmid (pro251) that contains no HSV-TK gene but has integrated the p251 promoter, and a pcDNA3-derived plasmid (CMV-TK) that has the HSV-TK gene and permits the expression of the HSV-TK gene were also used. Each of the plasmids ([…], pro251-TK, CMV-TK) was introduced using lipofectin into the breast cancer cells MCF7 or non-breast cancer cells A875. In order to utilize the expression of the Neo gene contained in pcDNA3 as a drug resistant marker, the transfected cells were cultured with 400 μg/ml of G418 (manufactured by Life Technologies) for ten days to establish the cells that express a respective gene. […]
# [4] = system: non-breast cancer cells A875; experiment: as above; format: cell-based, human; conditions: GCV seven days, FIG. 8B
# Protocol: as §2
molecule,measurement,setting,value
"p251: c-erbB-2 genomic region −213/+38, SEQ ID NO: 9 (nucleic acid, listed as Homo sapiens) DNA: GGCAACCCAGGCGTCCCGGCGCTAGGAGGGACGACCCAGGCCTGCGCGAAGAGAGGGAGAAAGTGAAGCTGGGAGTTGCCGACTCCCAGACTTCGTTGGAATGCAGTTGGAGGGGGCGAGCTGGGAGCGCGCTTGCTCCCAATCACAGGAGAAGGAGGAGGTGGAGGAGGAGGGCTGCTTGAGGAAGTATAAGAATGAAGTTGTGAAGCTGAGATTCCCCTCCATTGGGACCGGAGAAACCAGGGGAGCCC",transcription activity compared with SV40 promoter,[1],lower than the SV40 promoter
same,transcription activity compared with p533 promoter,[1],about the same as that of p533 promoter
same,promoter activity compared with SV40 promoter,[2],lower than the SV40 promoter
same,transcription activity compared with other c-erbB-2 promoter fragments,[2],low compared with the p344 promoter and with the p533 promoter
same,promoter activity compared with promoter of SV40 virus,[3],more potent than the promoter of SV40 virus
same,transcription activity compared with other c-erbB-2 promoter fragments,[3],higher transcription activity than the p533 promoter
same,sensitivity to GCV of cells expressing HSV-TK under the promoter,breast cancer cells MCF7,greater sensitivity to GCV than the parent strain
same,sensitivity to GCV of cells expressing HSV-TK under the promoter,[4],very weak compared with of the parent strain

# Reference: patent publication US7030099B2, “Tumor specific promoters of the midkine gene that allow for selective expression in P53-inactivated cells” (Research Corporation Technologies, Inc., priority 2000, dated 2006)
